Measured values as given in the supplement of paper PMC5998384.

What was measured:
[1] = test system: HeLa Kyoto; experiment: solubility in G1/S (NP-40 vs SDS abundance) (log2 ratio); higher = more soluble; details: cell cycle stage: G1/S
[2] = test system: HeLa Kyoto; experiment: melting temperature (median over replicates), in situ; higher = more thermally stable
[3] = test system: HeLa Kyoto; experiment: solubility change mitosis vs G1/S (difference of NP-40 vs SDS log2 ratios) (log2 ratio difference); higher = more soluble in mitosis
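Throughout, for melting temperature (median over replicates), in situ: HeLa Kyoto cells synchronized by double thymidine or nocodazole block, proteins quantified by TMT10plex mass spectrometry, three independent biological replicates.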
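Throughout, for solubility change mitosis vs G1/S (difference of NP-40 vs SDS log2 ratios): synchronized HeLa Kyoto cells (double thymidine block for G1/S, nocodazole release for mitosis), protein amounts in NP-40 versus SDS lysates quantified by mass spectrometry, three biological replicates.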
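Throughout, for solubility in G1/S (NP-40 vs SDS abundance): HeLa Kyoto cells arrested at G1/S by double thymidine block, proteins quantified by TMT10plex mass spectrometry in mild NP-40 versus SDS extracts, three biological replicates.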

Sequence | solubility in G1/S (log2) [1] | melting temperature ([2]; cell cycle stage: mitosis) [°C] | solubility change mitosis (log2) [3] | melting temperature ([2]; cell cycle stage: G1/S) [°C]
MNSTEFTEDVEEVLKSITVKVETEAEDAALDCSVNSRTSEKHSVDSVLTALQDSSKRKQLVSDGLLDSVPGVKRRRLIPEALLAGMRNRENSSPCQGNGEQAGRGRSLGNVWPGEEEPCNDATTPSYKKPLYGISHKIMEKKNPPSGDLLNVYELFEKANASNSPSSLRLLNEPQKRDCGSTGAGTDNDPNIYFLIQKMFYMLNTLTSNMSQLHSKVDLLSLEVSRIKKQVSPTEMVAKFQPPPEYQLTAAELKQIVDQSLSGGDLACRLLVQLFPELFSDVDFSRGCSACGFAAKRKLESLHLQLIRNYVEVYYPSVKDTAVWQAECLPQLNDFFSRFWAQREMEDSQPSGQVASFFEAEQVDPGHFLDNKDQEEALSLDRSSTIASDHVVDTQDLTEFLDEASSPGEFAVFLLHRLFPELFDHRKLGEQYSCYGDGGKQELDPQRLQIIRNYTEIYFPDMQEEEAWLQQCAQRINDELEGLGLDAGSEGDPPRDDCYDSSSLPDDISVVKVEDSFEGERPGRRSKKIWLVPIDFDKLEIPQPDFEVPGADCLLSKEQLRSIYESSLSIGNFASRLLVHLFPELFTHENLRKQYNCSGSLGKKQLDPSRIKLIRHYVQLLYPRAKNDRVWTLEFVGKLDERCRRRDTEQRRSYQQQRKVHVPGPECRDLTSYAINPERFREEFEGPPLPPERSSKDFCKIPLDELVVPSPDFPVPSPYLLSDKEVREIVQQSLSVGNFAARLLVRLFPELFTAENLRLQYNHSGACNKKQLDPTRLRLIRHYVEAVYPVEKMEEVWHYECIPSIDERCRRPNRKKCDILKKAKKVEK [BEND3] | -0.105 | 48.1 | 0.152 | 
MPGGCSRGPAAGDGRLRLARLALVLLGWVSSSSPTSSASSFSSSAPFLASAVSAQPPLPDQCPALCECSEAARTVKCVNRNLTEVPTDLPAYVRNLFLTGNQLAVLPAGAFARRPPLAELAALNLSGSRLDEVRAGAFEHLPSLRQLDLSHNPLADLSPFAFSGSNASVSAPSPLVELILNHIVPPEDERQNRSFEGMVVAALLAGRALQGLRRLELASNHFLYLPRDVLAQLPSLRHLDLSNNSLVSLTYVSFRNLTHLESLHLEDNALKVLHNGTLAELQGLPHIRVFLDNNPWVCDCHMADMVTWLKETEVVQGKDRLTCAYPEKMRNRVLLELNSADLDCDPILPPSLQTSYVFLGIVLALIGAIFLLVLYLNRKGIKKWMHNIRDACRDHMEGYHYRYEINADPRLTNLSSNSDV [TPBG] | 0.234 | 53.4 | 0.104 | 53.4
MPLRKMKIPFLLLFFLWEAESHAASRPNIILVMADDLGIGDPGCYGNKTIRTPNIDRLASGGVKLTQHLAASPLCTPSRAAFMTGRYPVRSGMASWSRTGVFLFTASSGGLPTDEITFAKLLKDQGYSTALIGKWHLGMSCHSKTDFCHHPLHHGFNYFYGISLTNLRDCKPGEGSVFTTGFKRLVFLPLQIVGVTLLTLAALNCLGLLHVPLGVFFSLLFLAALILTLFLGFLHYFRPLNCFMMRNYEIIQQPMSYDNLTQRLTVEAAQFIQRNTETPFLLVLSYLHVHTALFSSKDFAGKSQHGVYGDAVEEMDWSVGQILNLLDELRLANDTLIYFTSDQGAHVEEVSSKGEIHGGSNGIYKGGKANNWEGGIRVPGILRWPRVIQAGQKIDEPTSNMDIFPTVAKLAGAPLPEDRIIDGRDLMPLLEGKSQRSDHEFLFHYCNAYLNAVRWHPQNSTSIWKAFFFTPNFNPVGSNGCFATHVCFCFGSYVTHHDPPLLFDISKDPRERNPLTPASEPRFYEILKVMQEAADRHTQTLPEVPDQFSWNNFLWKPWLQLCCPSTGLSCQCDREKQDKRLSR | 0.0818 | 55.3 | -0.0688 | 55.8
MPVKKKRKSPGVAAAVAEDGGLKKCKISSYCRSQPPARLISGEEHFSSKKCLAWFYEYAGPDEVVGPEGMEKFCEDIGVEPENIIMLVLAWKLEAESMGFFTKEEWLKGMTSLQCDCTEKLQNKFDFLRSQLNDISSFKNIYRYAFDFARDKDQRSLDIDTAKSMLALLLGRTWPLFSVFYQYLEQSKYRVMNKDQWYNVLEFSRTVHADLSNYDEDGAWPVLLDEFVEWQKVRQTS [DCUN1D5] | 0.214 | 47.5 | -0.0762 | 
MRCCHICKLPGRVMGIRVLRLSLVVILVLLLVAGALTALLPSVKEDKMLMLRREIKSQGKSTMDSFTLIMQTYNRTDLLLKLLNHYQAVPNLHKVIVVWNNIGEKAPDELWNSLGPHPIPVIFKQQTANRMRNRLQVFPELETNAVLMVDDDTLISTPDLVFAFSVWQQFPDQIVGFVPRKHVSTSSGIYSYGSFEMQAPGSGNGDQYSMVLIGASFFNSKYLELFQRQPAAVHALIDDTQNCDDIAMNFIIAKHIGKTSGIFVKPVNMDNLEKETNSGYSGMWHRAEHALQRSYCINKLVNIYDSMPLRYSNIMISQFGFPYANYKRKI [EXTL2] | 0.132 | 58.5 | -0.23 | 56.7
MRRAWILLTLGLVACVSAESRAELTSDKDMYLDNSSIEEASGVYPIDDDDYASASGSGADEDVESPELTTSRPLPKILLTSAAPKVETTTLNIQNKIPAQTKSPEETDKEKVHLSDSERKMDPAEEDTNVYTEKHSDSLFKRTEVLAAVIAGGVIGFLFAIFLILLLVYRMRKKDEGSYDLGERKPSSAAYQKAPTKEFYA [SDC2] | -0.422 | 59.2 | -0.902 | 55.6
